Among the data in a protein production outcome set (Wang et al. 2014) are protein production values, retold here.

The series is described as follows: label from the status in PepcDB records.
“MSSARFDSSDRSAWYMGPVSRQEAQTRLQGQRHGMFLVRDSSTCPGDYVLSVSENSRVSHYIINSLPNRRFKIGDQEFDHLPALLEFYKIHYLDTTTLIEPAPRYPSPPMGSVSAPNLPTAEDNLEYVRTLYDFPGNDAEDLPFKKGEILVIIEKPEEQWWSARNKDGRVGMIPVPYVEKLVRSSPHGKHGNRNSNSYGIPEPAHAYAQPQTTTPLPAVSGSPGAAITPLPSTQNGPVFAKAIQKRVPCAYDKTALALEVGDIVKVTRMNINGQWEGEVNGRKGLFPFTHVKIFDPQNPDENE”: the protein production entry is listed as “not failed”.

Take “MSSASGLRRGHPAGGEENMTETDAFYKREMFDPAEKYKMDHRRRGIALIFNHERFFWHLTLPERRGTCADRDNLTRRFSDLGFEVKCFNDLKAEELLLKIHEVSTVSHADADCFVCVFLSHGEGNHIYAYDAKIEIQTLTGLFKGDKCHSLVGKPKIFIIQACRGNQHDVPVIPLDVVDNQTEKLDTNITEVDAASVYTLPAGADFLMCYSVAEGYYSHRETVNGSWYIQDLCEMLGKYGSSLEFTELLTLVNRKVSQRRVDFCKDPSAIGKKQVPCFASMLTKKLHFFPKSNLEHHHHHH”: the protein production result is “failed”.

For the sequence “MSSDESSDGLEELQSLKALYGQQEQEKPAKIKRERYIPKASQAKELNYVEVPMEKVLFGDRQRLLTNLAKSVGQKLPNDDEDEQEENPGQAKPGDKRKAAWSDSDDEDLQVGDVKKATKHTGPLNHLRKDKSYKEYLTARFQRTLNQPKWAEKKVKNEDDEDVSSDEELLRTVGFIDRKARNSDLPQKTLNFKRVKDLNRATYAEGNATSIQFHPTSTAALVAGMNGLATIYAVDGQKNERLHNMRFKKFPLACSRIAPCGTRAFFGSVKPFYYSYDLLEAKESKLKLPGAMEFMHRFEVSPCGKFIVTAGKFGAIHLLTAKTNELLHSFKQEGKVKGFTWSSDSKRILVCGSTSNVSVLNLRQNLIEHIFMDDGCIHGESIQLSPNQRLLATGSQEGVVNIYDYESIFASKAPQPEKRFMNLRTAITDLQFNHSSELLAMCSSEAPNAFKLAHFPSATVYSNFPAQNEKVGFVTSMAFSPHSSFLAFATKGKQVPLFRLKYFKGY”, the protein production entry is “failed”.

With “MSSECDGGSKAVMNGLAPGSNGQDKDMDPTKICTGKGAVTLRASSSYRETPSSSPASPQETRQHESKPGLEPEPSSADEWRLSSSADANGNAQPSSLAAKGYRSVHPNLPSDKSQDSSPLLNEVSSSLIGTDSQAFPSVSKPSSAYPSTTIVNPTIVLLQHNREQQKRLSSLSDPVSERRVGEQDSAPTQEKPTSPGKAIEKRAKDDSRRVVKSTQDLSDVSMDEVGIPLRNTERSKDWYKTMFKQIHKLNRDDDSDLYSPRYSFSEDTKSPLSVPRSKSEMSYIDGEKVVKRSATLPLPARSSSLKSSSERNDWEPPDKKVDTRKYRAEPKSIYEYQPGKSSVLTNEKMSRDISPEEIDLKNEPWYKFFSELEFGKPTNLDKDLSLCQTELEADLEKMETLNKAPSANVPQSSAISPTPEISSETPGYIYSSNFHAVKRESDGAPGDLTSLENERQIYKSVLEGGDIPLQGLSGLKRPSSSASTKVHSRTFNTSNALGPVCKHKKPLSAAKACISEILPSKFKPRLSAPSALLQEQKSILLPSEKAQSCENLCVSGSLNDSKRGLPLQVGGSIENLLMRSRRDYDSKSSSTMSLQEYSTSGRRPCPLSRKAGMQFTMLYRDMHQINRSGLFLGSISSSSSVRDLASHFEKSSLALSRGELGPSQEGSEHIPKHTVSSRITAFEQLIQRSRSMPSLDLSGRLSKSPTPVLSRGSLTSARSAESLLESTKLHPKEMDGMNSSGVYASPTCSNMAHHALSFRGLVPSEPLSTCSDDVDRCSNISTDSREGSGGSVHGDFPKHRLNKCKGTCPASYTRFTTIRKHEQQQTSRQPEWRLDARGDKSTLLRNIYLMSPLPFRLKKPLHHHPRQPSPGDSSGLLVGQKPDLPSQPHQDQPPSGGKPVVPTRLSSRHTMARLSRSSEPSQERPTALEDYPRAINNGNSVPYSDHSLDRNNNPQSELAPSRGDSESPRHFIPADYLESTEEFIRRRHDDKEMRPARAKFDFKAQTLKELPLQKGDIVYIYKQIDQNWYEGEHHGRVGIFPRTYIELLPPAEKAQPKKLTPVQVLEYGEAIAKFNFNGDTQVEMSFRKGERITLLRQVDENWYEGRIPGTSRQGIFPITYVDVIKRPLVKNPVDYMDLPFSSSPSRSATASPQQPQAQQRRVTPDRSQTSQDLFSYQALYSYIPQNDDELELRDGDIVDVMEKCDDGWFVGTSRRTKQFGTFPGNYVKPLYL”, the protein production entry is reported as “not failed”.

On to “MSSESRNLNRFFLYFAGILIFFIYITPCLATYNFEGTPEQDELIEITSGTVKGGLYVDGGEGLKKTPYVQEFNVPGDVVTWARVYVGVWGGTEEKTGTLDLTINGEEFESLDLEGKNDKGDDEDQNPAIYCTGHGVYWIAYDVGTNISTGPVTVEAQTEGDIDGRVYGIILAAVYEDKEGQSTKYWVEEGNINLHGKGWSETLASTHDEGYADFSGKVDTDKYNTANLAVVYLCGTPGLDDSLYFNEEQLSDGENSNDIANSKSYFDFKFFDVLDLLEEDDNELKFQRDEEDYVHPVLAALTLGTGEEGTSDLIVSGLTVPLLYAGKDNTIKASIKNIGKDSAYGFQAALYADGEIVSTAPVSSLSSGKSKTIEFNWKPAWDGEQALKVYVDYTNKKKETCEVNNWNSPFLAKVVDLTPPELEIDYPEDGARVDAGYLTVSGTIEDTNRNLTVDVNGQNALISGESWSASVPVVSGPNTIVVSAVDGENNTGRELIVVEGKESSTDSKESSQSDLTVSSKAENETEPVNQSILGSQTREYEKQAVLSPISEGIGFISAILFLRYRNRGKRL”, for which the protein production entry was “failed”.

On to “MSSFVLDKEAFVRRVKRLYTEWRAPSIGHDDALRNLDCIMSIVGVEEDVMYSKSMALQLWLLGYELTDTISVFCSDAVYFLTSKKKIEFLKQTQNITEEGFPEINLLVRDRTDKDQGNFEKLIKALQNSKKGKRLGVFAKDAYPGEFSEAWKKSLTASKFEHVDISTIIAYLMCPKDESEINNIRKASLVSMDIFNKYLKDEIMDIIDSDRKVKHNKLSDGCEAAIGEKKYTSGLDPRLLDMAYPPIIQSGGAYSLKFSAVADKNPLHFGVIVCSLGARYKSYCSNISRTFLVNPTEAMQENYTFLVSV”, for which the protein production entry is “failed”.

Take “MSSIKIECVLPENCRCGESPVWEEVSNSLLFVDIPAKKVCRWDSFTKQVQRVTMDAPVSSVALRQSGGYVATIGTKFCALNWKEQSAVVLATVDNDKKNNRFNDGKVDPAGRYFAGTMAEETAPAVLERHQGALYSLFPDHHVKKYFDQVDISNGLDWSLDHKIFYYIDSLSYSVDAFDYDLQTGQISNRRSVYKLEKEEQIPDGMCIDAEGKLWVACYNGGRVIRLDPVTGKRLQTVKLPVDKTTSCCFGGKNYSEMYVTCARDGMDPEGLLRQPEAGGIFKITGLGVKGIAPYSYAG”: the protein production entry is listed as “failed”.

For the sequence “MSSKEEILSILEAFASTERMGSFFLDNATADFLFIRPSGNPLDAKGFENMWSSGDLVLESAEITKVHKFELLGSNAAICVFTLGSKFTYKGTQNDDLPTVTSIFKKIDEKWKVAWMQRSSGQSDMTLWNE”, the protein production result is “not failed”.

As for “MSSKIDALKITVLSLSLCFSVSSLSATVNKTVKQKKNVIYILTDDQRYDEVGFLNPRIDTPNMDKLAAGGVYFKNAFVTTALCSPSRATILTGQYMHNHGVVDNNNPAKESSVYFPSYLQEVGYETSFFGKWHMGGHGDSPQPGFDHWLSFAGQGHYYPKKDKKGRTNKININGERVDQKGYITDELTDYAVDWLDKRDSDKPFFMYLSHKAVHSNFDPAPRHKDQYSDVAIEVPESQADTPENYAGKPMWVKNQRNSWHGVDFPYHSEMDVQEYKRQYHRALSAVDDSLGRVLKWLKDNNLENDTIVMLMGDNGFMFGEHGLIDKRNAYEESMRVPLLAYAPGYFKPGTVVDEMVANLDIAPTILEIAGAKKPAHFDGDSWLPLAKNKEVNQWRENFLYEYYWEFNYPSTPTTFALRTDNYKLIQYHGVWDTEELYDLKNDPKEMNNLINTPKHQPLIAQMRHDLFNLLVNKKGDNVIPYTEKYTPGAVYRERDRGETADFPDNWLKKEGDDGLRTFLRIKPIKDKKDDKKKSAKH”, the protein production result was “failed”.

As for “MSSLAQREERSSDGREPARAWAVTIVVLGLLLVIWPFVRTPPLPIAPAYAHLLGAWLGAVVALAAMARALRPHRRRGPPDA”, the protein production result is recorded as “failed”.

As for “MSSLLGTFLYTLETTLPVFAMVFIGIGLRRIGWIDQGFIATASALVFKATLPTLVFLSIIRADLDTTLSISMLIFYFLATLASFALVWFWATKRVRQEDRGVYVQGAFRGNCGIVGLALAANLYGDYGLSAGGLLLGLVIVVYNSLSVIVLLAYQPGKTMSLSNTLRDIARNPLIIGVVLAIPFAAFEITLPGWVMTSGDYFASLTLPLALLCIGATVSLKSIRSDSGPAMGSSIWKMVSLPALCTLVAWLAGFEGRELGLMFLFFASPTAAASFVMVKALGGNDRMAANIIALTTLLASVTVTTGVFVLQSIGVA”, the protein production result is listed as “failed”.

As for “MSSLMMHCLIHVQELMNVKGIVVDELTGRSGPDHAKSLDPRTSLLRLITRPLGRVPPRESLDHFTRPPGRVSSPLPPSPSLDYILDVELQSLLHSALNQTLEHKEEKKTPAIHSTSHSTTLVEYSS”, the protein production entry is “failed”.

Consider “MSSLTIILIAAISAVLAFLIIFLLKSILFPKKRARIEKNLKSGKYGAAIKDAKSILSKNPRDSEARYLLGKAYLADKKVDLAFIEFKTLNKTAVFNNPATEIEFRTIIADLYLKFQQPDEALKEFMLLNKRDPKNPKPYFQAGQIYESKNMSDQAIAYFQKAIEVDSRFAEAYASLGLLLFKANQIPEAEKAIATALKLAPDNSETLYYHGKILKSKKNYAQALSALEKAARKQEIRSKCFFERGCCYLETNSLEKAEFEFTRAIKSSKQLSAPEVLYSRYLLADCYERQRNIDQAIEQWEAISAVNPKFRNTAQKLAEYSDLRTNDHMKEYLTLIKEEFFKMCRDITEQYFDYPVQALKETKMGCTILAVEKGSEQWLNTRKKPQLLIFSRDGHTITESFLRSVHEEMKKQAVVTSHIITSGAFSPDAIKFAENRPFNLIDRQKLERIVEKVKFTF”, for which the protein production result was “failed”.

As for “MSSLTSVELNFLVFRYLQESGFTHAAFTLGYEAGINKSNIDGNMVPPGALIKFVQKGLQYMEMEANLSNSEVDIDEDFSFFQPLDLISKDVKELQDMLREKKRKERDMEKERDRSKENDKGVEREHEGDRNRAKEKDRHEKQKEREREREKLEREKEREREKIEREKEREREKMEREIFEREKDRLKLEKEREIEREREREKIEREKSHEKQLGDADREMVIDQTDKEIAGDGSTGAEPMDIVMTPTSQTSHIPNSDVRILEGHTSEVCACAWSPSASLLASGSGDATARIWSIPEGSFKAVHTGRNINALILKHAKGKSNEKSKDVTTLDWNGEGTLLATGSCDGQARIWTLNGELISTLSKHKGPIFSLKWNKKGDYLLTGSVDRTAVVWDVKAEEWKQQFEFHSGPTLDVDWRNNVSFATSSTDSMIYLCKIGETRPAKTFTGHQGEVNCVKWDPTGSLLASCSDDSTAKIWNIKQSTFVHDLREHTKEIYTIRWSPTGPGTNNPNKQLTLASASFDSTVKLWDAELGKMLCSFNGHREPVYSLAFSPNGEYIASGSLDKSIHIWSIKEGKIVKTYTGNGGIFEVCWNKEGNKIAACFADNSVCVLDFRM”, the protein production entry is on record as “failed”.
